No end group written: not given here. biotin = biotin label at C-terminus

The target in assay [1] is T1, biotinylated Huntingtin peptide Happ(-) (PGPAVAEEPLHRPG-biotin).
T1 construct: also called second biotinylated proline rich peptide; carboxy derived Huntington's peptide
T1 peptide: PGPAVAEEPLHRPG-biotin
Description: ELISA, purified intrabody on poly-proline peptides (FIG. 1B). As to the method:
(§1) ELISA was performed to determine the binding activity of isolated scFv clones against biotinylated Huntingtin peptide designated Happ(+) ([…]-biotin (SEQ ID NO: 26), and a second biotinylated Huntingtin peptide designated Happ(−) ([…]-biotin (SEQ ID NO: 28). All incubations except antigen coating were carried out at room temperature. Microtiter plates (Nuc) were coated with 100 μl of a biotinlyated Huntingtin peptide solution (2 μg/ml in 50 mM NaHCO3 buffer, pH 9.6) and incubated overnight at 4° C. The plates were washed 3 times with 200 μl of 1×TBS (50 mM Tris-Cl, 150 mM NaCl pH 8.0) and blocked with 100 μl of 2% milk in TBS for 2 hr. Plates were washed once with 200 μl of 1×TBS. In some experiments, preblocked Strepavidin coated plates (Pierce) were used to bind biotinylated peptide. Cell extracts (50 μl) or purified StrepII tagged Intrabodies were added to the antigen-coated blocked plates and incubated for 1.5 hr. Extracts of E. coli cultures from individual colonies selected by panning after overnight induction with IPTG were prepared by lysis in B-Per (Pierce) as described by the manufacturer and centrifuged at 10,000×g for 10 minutes to remove cell wall and debris. Supernatants from these extracts were used directly or diluted with TBS (1:2, 1:4) prior to use. […] The optical density (OD) was measured at 405 nm on a spectrophotometer and the level of scFv binding determined. […]
For orientation: ELISA stands for enzyme-linked immunosorbent assay.

The target in assay [2] is T2, biotinylated Huntingtin peptide Happ(+) (RPQLPQPPPQAQPRGGGSK-biotin).
T2 construct: also called biotinylated PRP; poly-proline peptide
T2 peptide: RPQLPQPPPQAQPRGGGSK-biotin
Described as above. As for the experimental part:
as §1

The target in assay [3] is T1, biotinylated Huntingtin peptide Happ(-) …. Description: ELISA, purified intrabody on poly-proline peptides (FIG. 1A). As to the method:
as §1

Assay [4] addresses T2, biotinylated Huntingtin peptide Happ(+) …. As to the kind of experiment: ELISA, purified scFv on biotinylated peptide. As to the method:
as §1

In assay [5] the target is T1, biotinylated Huntingtin peptide Happ(-) …. As to the kind of experiment: ELISA, purified intrabody on poly-proline peptides (FIG. 1C). As for the experimental part:
as §1

Assay [6] addresses T2, biotinylated Huntingtin peptide Happ(+) …. The assay is described as above. As for the experimental part:
as §1

Assay [7] concerns the target T1, biotinylated Huntingtin peptide Happ(-) …. As to the kind of experiment: ELISA, H8 in E. coli lysate against purified H8; peptide not given.
For assay [8], the target named is T2, biotinylated Huntingtin peptide Happ(+) …. Described as above.

B1: A2 (scFv)
scFv: MAEVQLVVSGGGLVKPGGSMILSCAASGFTFSNYSMNWVRQAPGKGLEWVSSISSSSEYIYYADFVKGRFTISRDNAKNSLYLQMDSLRAEDTAVYYCAHWPRLWRFPLWGRGTLVTVSSGGGGSGGGGSGGGGSQSVLTQPASVSGSPGQSITISCAGTSSDVGGYNYVSWYQQHPGKAPKLMIYEDSKRPSGVSNRFSGSKSGNTASLTISGLRAEDEADYYCVLNMHWANFGGGTKLAVLGAAAEQKLIS
notes: Single chain intrabody; purified with a carboxy terminal StrepII tag for the ELISA; not shown: carboxy terminal StrepII tag of the purified form (pET24)
Consider B1, for which the binding result in assay [1] and in assay [2] was “binds” throughout.

B2: INT41 (scFv)
scFv: MAEVQLVVSGGGLVKPGGSMILSCAASGFTFSNYSMNWVRQAPGKGLEWVSSISSSSEYIYYADFVKGRFTISRDNAKNSLYLQMDSLRAEDTAVYYCAWPGYRKAWGRGTLVTVSSGGGGSGGGGSGGGGSQSVLTQPASVSGSPGQSITISCAGTSSDVGGYNYVSWYQQHPGKAPKLMIYEDSKRPSGVSNRFSGSKSGNTASLTISGLRAEDEADYYCSYCASKGHWLFGGGTKLAVLGAAAEQKLIS
notes: Single chain intrabody (VH-linker-VL) from the T3 scFv library; Purified from E. coli with a carboxy terminal StrepII tag for the ELISA; also called INT41 intrabody; not shown: carboxy terminal StrepII tag of the purified form (pET24)
On to B2, for which the binding result in assay [3] and in assay [4] was “binds” throughout.

B3: E10 (scFv)
scFv: MAEVQLVVSGGGLVKPGGSMILSCAASGFTFSNYSMNWVRQAPGKGLEWVSSISSSSEYIYYADFVKGRFTISRDNAKNSLYLQMDSLRAEDTAVYYCAITGCECTWGRGTLVTVSSGGGGSGGGGSGGGGSQSVLTQPASVSGSPGQSITISCAGTSSDVGGYNYVSWYQQHPGKAPKLMIYEDSKRPSGVSNRFSGSKSGNTASLTISGLRAEDEADYYCSCIRGLKAAYFGGGTKLAVLGAAAEQKLIS
notes: as for B1
Regarding B3, the binding result in assay [5] and in assay [6] was “binds” each time.

B4: H8 (scFv)
scFv: MAEVQLVVSGGGLVKPGGSMILSCAASGFTFSNYSMNWVRQAPGKGLEWVSSISSSSEYIYYADFVKGRFTISRDNAKNSLYLQMDSLRAEDTAVYYCAAAVCNGRPDTWGRGTLVTVSSGGGGSGGGGSGGGGSQSVLTQPASVSGSPGQSITISCAGTSSDVGGYNYVSWYQQHPGKAPKLMIYEDSKRPSGVSNRFSGSKSGNTASLTISGLRAEDEADYYCGYSLLPVLFGGGTKLAVLGAAAEQKLIS
notes: Single chain intrabody; tested purified (StrepII tag) and also in E. coli lysate form; not shown: carboxy terminal StrepII tag of the purified form (pET24)
In the case of B4, the “fold signal, lysate form against purified form” value in assay [7] and in assay [8] was 3 times each time.

The values above are taken from US20170044241A1 (VYBION, published 2017).
